Results on one protein are retold here after PMC3680494, “Genomics-Guided Analysis of NAD Recycling Yields Functional Elucidation of COG1058 as a New Family of Pyrophosphatases” (PLoS ONE, 2013).

For orientation: Km means the concentration of substrate that gives half-maximal velocity. The kcat is the maximal rate divided by the concentration of active sites.

Substrate in the series: Nc1ncnc2c1ncn2[C@@H]1O[C@H](CO[P@](=O)(O)O[P@](=O)(O)OC[C@H]2O[C@@H](n3cnc4c(N)ncnc43)[C@H](O)[C@@H]2O)[C@@H](O)[C@H]1O
In words: HPLC of mononucleotide formed, Michaelis-Menten fit. Type of series: biochemical, Agrobacterium fabrum. Conditions: pH 7.5 (100 mM TRIS/HCl), 1 mM CoCl2, 100 mM KCl, 37°C.

B1: AtCOG1058 (Agrobacterium fabrum str. C58) (protein)
chain: MSNPSSTSSVVTAAMLAIGDELLSGRTKDKNIGHLADVLTMSGIDLKEVRIVADEEESIVEALNALRSRYDYVFTSGGIGPTHDDITADAISAAFGLPCEHDAEALRLLGDMYRVREMEFTEARKRMARMPKGAAHIANPVSVAPGFVIGNVYVMAGVPQVFQAMLDNVMPTLRTGAKVMSQAVRSPYGEGDIGTPLTAIQKAHPETSIGSYPKYDGQRFSTEIVVRARDAGLLKAATEAVAAMIEAIGQEKQLAASKGDATA
notes: stand-alone COG1058 protein cloned from genomic DNA in pET100/D-TOPO; N-terminal His tag; E. coli BL21(DE3); HisTrap purified
B1: the Km was 210 ± 22 µM and the catalytic constant (kcat) was 5.6 ± 0.7 s⁻¹.
